Measured values reported in paper PMC7367873, “Dissecting the sequence determinants for dephosphorylation by the catalytic subunits of phosphatases PP1 and PP2A” (Nature Communications, 2020).

Target: T1, PP2Ac (Homo sapiens, UniProt P67775)
T1 construct: purchased Cayman Chemical 10011237
Assay: Phosphopeptide library dephosphorylation followed by mass spectrometry (PLDMS), PP2Ac
Type: biochemical
Conditions: all libraries, 25 nM PP2Ac, 100 µM library, 4 min, 25 °C, pH 7.5; library distribution 60% Ser to 40% Thr
From the text: In order to determine phosphatase specificity on the phosphopeptide level, we developed an in vitro phosphopeptide library dephosphorylation followed by mass spectrometry approach (PLDMS, Fig. 1a; see the methods for details). In this approach, phosphopeptide libraries would be treated with PP1, PP2A, or left untreated, purified, and analyzed by LC-MS/MS measurements. In the first step, design, synthesis, and validation of phosphopeptide libraries were required. The phosphopeptide libraries were designed to yield an even distribution of amino acids in the different randomized positions and to give high coupling efficiency during synthesis, thus reducing the number of by-products. […]
The individual libraries were incubated with recombinant PP1c or PP2Ac (Supplementary Fig. 1a) and the reaction was stopped by shifting the pH from 7.5 to 3 when 30–50% of the library was dephosphorylated, depending on phosphatase activity (see the methods for details, Supplementary Fig. 1b). Peptides were then separated from the recombinant protein by size-exclusion chromatography (SEC) (Supplementary Fig. 1c) and analyzed by LC-MS/MS (Fig. 1a). […]
For LC-MS analysis, the treated/ctrl peptide libraries were purified by SEC. […] A 0.1 M ammonium acetate buffer (pH 5) was used throughout the column equilibration and purification and the elution profile was recorded at 280 nm. […]

T1 sequence (P67775 1-308 limits assumed): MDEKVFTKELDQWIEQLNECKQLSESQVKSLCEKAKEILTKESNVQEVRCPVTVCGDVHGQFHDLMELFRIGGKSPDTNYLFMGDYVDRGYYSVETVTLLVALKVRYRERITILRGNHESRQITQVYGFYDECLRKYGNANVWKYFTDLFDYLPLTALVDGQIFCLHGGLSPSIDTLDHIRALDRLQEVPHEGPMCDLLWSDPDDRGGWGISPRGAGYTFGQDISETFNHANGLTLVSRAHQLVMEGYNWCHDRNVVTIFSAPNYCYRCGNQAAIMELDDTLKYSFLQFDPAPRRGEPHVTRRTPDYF

- pThr share of all sites dephosphorylated by PP2Ac: 83%
Substance: PP2Ac: His-tagged recombinant PPP2CA ΔL309, purchased from Cayman Chemical
